Experimental data as given in patent US20130224224A1 (Boehringer Ingelheim, published 2013).
Substitutions are numbered along the chain they refer to. Each block holds one binder with its values, some of them ahead of it.

Columns and labels:
human CX3CR1 [1] = target: T1, human CX3CR1 (human, UniProt P49238 1-355); assay: cell-based or functional assay
T1 sequence: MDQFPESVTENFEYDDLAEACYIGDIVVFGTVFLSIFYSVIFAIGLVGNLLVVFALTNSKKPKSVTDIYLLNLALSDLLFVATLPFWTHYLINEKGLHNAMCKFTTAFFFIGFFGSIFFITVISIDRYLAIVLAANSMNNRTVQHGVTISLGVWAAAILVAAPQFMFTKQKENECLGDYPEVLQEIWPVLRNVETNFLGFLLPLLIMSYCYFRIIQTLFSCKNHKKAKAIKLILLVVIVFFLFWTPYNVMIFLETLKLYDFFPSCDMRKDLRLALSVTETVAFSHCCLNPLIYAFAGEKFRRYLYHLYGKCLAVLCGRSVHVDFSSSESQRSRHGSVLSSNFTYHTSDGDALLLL

cynomolgus CX3CR1 [2] = target: T2, cynomolgus CX3CR1 (cynomolgus, UniProt P49238 1-355 (human entry)); assay: FACS binding, cynomolgus against human CX3CR1
T2 construct: transiently expressed on HEK293T cells; also called cyCX3CR1; cyno CX3CR1
T2 chain: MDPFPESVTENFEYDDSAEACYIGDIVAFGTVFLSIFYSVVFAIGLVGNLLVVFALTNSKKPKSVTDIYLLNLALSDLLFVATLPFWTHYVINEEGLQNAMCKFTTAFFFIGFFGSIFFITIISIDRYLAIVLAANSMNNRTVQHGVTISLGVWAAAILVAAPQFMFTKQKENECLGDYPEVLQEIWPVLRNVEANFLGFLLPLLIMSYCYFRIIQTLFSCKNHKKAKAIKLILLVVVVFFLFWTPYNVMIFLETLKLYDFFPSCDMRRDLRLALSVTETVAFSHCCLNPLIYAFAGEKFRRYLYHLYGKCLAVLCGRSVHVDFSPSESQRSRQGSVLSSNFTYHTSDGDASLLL
Protocol: (§1) Initially, a FACS based binding setup was used to evaluate the cynomolgus cross reactivity. For this, the VHHs were incubated with the respective cells for 30 minutes at 4° C. followed by three wash steps and subsequently incubated with the detection reagents. As detection, a mouse anti-cmyc antibody (Serotec, MCA2200) followed by a goat anti-mouse antibody coupled to PE (Jackson 115-116-071) was used, each incubation for 30 minutes at 4° C., followed by three wash steps.

human CX3CR1 [3] = target: T1, human CX3CR1; assay: A647-fractalkine competition FACS, CHO-huCX3CR1
From the text: (§2) Periplasmic extracts were screened in a human CX3CR1/human Fractalkine FACS competition assay to assess the blocking capacity of the expressed VHHs. Human CX3CR1 was presented on CHO cells overexpressing CX3CR1. Both a setup using cells harvested from an actively growing culture and a setup using frozen cells was used. As a detection reagent labeled fractalkine was used (R&D Systems, Minneapolis, Minn., USA) labeled with alexa647 (A647-Fractalkine) at a degree of labeling of 1. To setup the assay, first a titration series of the labeled fractalkine was performed on the CHO-huCX3CR1 cells in order to determine the EC50 value for binding. Initially screening was performed at a higher concentration of fractalkine (3 nM) to increase the assay robustness. To increase the sensitivity of the screening to a maximum, the EC30 concentration (1 nM) was chosen for subsequent screening. In brief 50 μl of periplasmic extract was added to 6 nM labeled fractalkine (50 μ;) and 200 000 CHO-huCX3CR1 cells. After one hour incubation at 4 C, cells were washed three times before read out was performed on a FACS Array (Becton Dickinson). First a gate was set on the intact cells as determined from the scatter profile. Next, dead cells were gated out by their fluorescence profile from the PI stain (Sigma, St Louis, US). The fluorescence profile from the alexa647 label was determined for each sample and used for calculation of blocking capacity. As controls, conditions were taken along where there was no VHH present in the peri extract or a known irrelevant VHH and samples were included where excess cold fractalkine was included. For each sample the percentage block was determined using the control samples to determine the assay window.
(§3) The blocking capacity towards the ligand fractalkine of the VHHs was evaluated in a human CX3CR1 competition FACS as outlined in Example 4. Either CHO-huCX3CR1 cells, BA/F3-huCX3CR1 cells or transiently transfected HEK293T cells were used. The amount of labeled ligand used in the different competition setups was also varied. The IC₅₀ values for VHHs blocking the interaction of human fractalkine to human CX3CR1 are depicted in Table 19.

human CX3CR1 [4] = target: T1, human CX3CR1; assay: A647-fractalkine competition FACS, BA/F3-huCX3CR1
From the text: as §2, §3

human CX3CR1 [5] = target: T1, human CX3CR1; assay: A647-fractalkine competition FACS, HEK293-huCX3CR1
From the text: as §2, §3

human CX3CR1 [6] = target: T1, human CX3CR1; assay: A647-fractalkine competition FACS, HEK293T human CX3CR1
From the text: as §2
(§4) For later identified VHHs, a human Fractalkine competition FACS was set up using human or cynomolgus CX3CR1 expressed in HEK293T cells. Both the human and the cynomolgus receptor was transiently transfected in HEK293T cells and transfections were matched by the binding of the labeled ligand, human fractalkine. The competition was evaluated using the EC30 concentration of fractalkine and as such obtained IC50 values are a good estimate of the Ki value, a measure for affinity (Table 22). The experiment was performed as described in Example 4.

human CX3CR1 [7] = target: T1, human CX3CR1; assay: FACS binding on human CX3CR1 cells, anti-c-myc detection
Protocol: as §1

cynomolgus CX3CR1 [8] = target: T2, cynomolgus CX3CR1; assay: A647-fractalkine competition FACS, HEK293T cynomolgus CX3CR1
From the text: as §2, §4

cynomolgus CX3CR1 [9] = target: T2, cynomolgus CX3CR1; assay: FACS binding on cynomolgus CX3CR1 cells, anti-c-myc detection
Protocol: as §1

cynomolgus CX3CR1 [10] = target: T2, cynomolgus CX3CR1; assay: A647-fractalkine competition FACS, cynomolgus against human CX3CR1
From the text: as §2, §4

human CX3CR1 [11] = target: T1, human CX3CR1; assay: periplasmic extract, A647-fractalkine competition FACS, CHO-huCX3CR1
Procedure, shortened: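 Periplasmic VHH extracts competed with Alexa647-fractalkine (EC30, 1 nM; 3 nM initially) for binding to live or frozen CHO cells overexpressing human CX3CR1, 1 h at 4 C. FACS read on intact, PI-negative cells; percent block derived using no-VHH, irrelevant-VHH and excess cold fractalkine controls.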

% block, fractalkine induced chemotaxis (human CX3CR1 [1]): 45%
IC50, fractalkine induced chemotaxis (human CX3CR1 [1]): 50 nM
ratio (cynomolgus/human EC50) (cynomolgus CX3CR1 [2]): 0.1
% block (human CX3CR1 [3]): 78%
IC50 (human CX3CR1 [3]): 11 nM
% block (human CX3CR1 [4]): 81%
IC50 (human CX3CR1 [4]): 15 nM
% block (human CX3CR1 [5]): 52%
IC50 (human CX3CR1 [5]): 23 nM
% block (human CX3CR1 [6]): 52%
IC50 (human CX3CR1 [6]): 23 nM
EC50 (human CX3CR1 [7]): 540 nM
% block (cynomolgus CX3CR1 [8]): 69%
IC50 (cynomolgus CX3CR1 [8]): 280 nM
EC50 (cynomolgus CX3CR1 [9]): 30 nM
ratio (cynomolgus/human IC50) (cynomolgus CX3CR1 [10]): 12.3
% block (human CX3CR1 [11]): 68.9%
B1: CX3CR1BIIPMP54A7 (VHH)
VHH: EVQLVESGGGSVQAGESLRLSCAASGTIFSSNAMAWYRQAPGKQRDLVAGINSVDITKYADSVKGRFTISRDNAKNTVYLQMNSLKPEDTAVYYCTSDPRRGWNTRYWGQGTQVTVSS
notes: also called 54A07; not shown: C-terminal c-myc and His6 tags

% block, fractalkine induced chemotaxis (human CX3CR1 [1]): 84%
IC50, fractalkine induced chemotaxis (human CX3CR1 [1]): 80 nM
ratio (cynomolgus/human EC50) (cynomolgus CX3CR1 [2]): 3.3
% block (human CX3CR1 [3]): 104%
IC50 (human CX3CR1 [3]): 2.1 nM
% block (human CX3CR1 [4]): 100%
IC50 (human CX3CR1 [4]): 4 nM
% block (human CX3CR1 [5]): 96%
IC50 (human CX3CR1 [5]): 6.8 nM
% block (human CX3CR1 [6]): 96%
IC50 (human CX3CR1 [6]): 6.8 nM
EC50 (human CX3CR1 [7]): 35 nM
% block (cynomolgus CX3CR1 [8]): 94%
IC50 (cynomolgus CX3CR1 [8]): 67 nM
EC50 (cynomolgus CX3CR1 [9]): 110 nM
ratio (cynomolgus/human IC50) (cynomolgus CX3CR1 [10]): 9.85
% block (human CX3CR1 [11]): 93.8%
B2: CX3CR1BIIPMP54A12 (VHH)
VHH: B1 VHH with T27S, G50V, D55G, R71G, P99A, N104D
notes: also called CX3CR1BII54A12; not shown: C-terminal c-myc and His6 tags

% block, fractalkine induced chemotaxis (human CX3CR1 [1]): 81%
IC50, fractalkine induced chemotaxis (human CX3CR1 [1]): 70 nM
ratio (cynomolgus/human EC50) (cynomolgus CX3CR1 [2]): 59.6
% block (human CX3CR1 [3]): 102%
IC50 (human CX3CR1 [3]): 2.7 nM
% block (human CX3CR1 [4]): 99%
IC50 (human CX3CR1 [4]): 5.5 nM
% block (human CX3CR1 [5]): 94%
IC50 (human CX3CR1 [5]): 5.3 nM
% block (human CX3CR1 [6]): 94%
IC50 (human CX3CR1 [6]): 5.3 nM
EC50 (human CX3CR1 [7]): 0.84 nM
% block (cynomolgus CX3CR1 [8]): 91%
IC50 (cynomolgus CX3CR1 [8]): 64 nM
EC50 (cynomolgus CX3CR1 [9]): 50 nM
ratio (cynomolgus/human IC50) (cynomolgus CX3CR1 [10]): 12.2
% block (human CX3CR1 [11]): 87.8%
B3: CX3CR1BIIPMP54D5 (VHH)
VHH: EVQLVESGGGSVQAGESLRLSCAASGSIFSSNAMAWYRQAPPGKQRDLVALINSVGITKYADSVKGRFTISSDNAKNTVYLEMNSLKPEDTAVYYCTSDGRRGWDTRYWGQGTQVTVSS
notes: also called 54D05; CX3CR1BII54D5; not shown: C-terminal c-myc and His6 tags
